From patent US20090304719A1 (University of California, published 2009)
Bridges are numbered along the chain shown (N, C = ends). Where no end group is shown, it is not given here. CPX = display scaffold, circularly permuted E. coli OmpX, fused C-terminal

Legend:
[1] = target: T1, VEGF (UniProt P15692-4 27-191, limits assumed, biotinylated in the FACS assays (sites not given)); assay: FACS, construct displayed on E. coli (CPX), labeled VEGF; MMP-2 treated against untreated (FIG. 25)
T1 construct: Species and isoform are never stated; also called labeled VEGF; biotinylated VEGF
Description: (§1) In experiments involving addition of enzyme, 30 nM MMP-2 was included in the Tris-Cl buffer (no enzyme added to the control reaction), and the reaction mixture was incubated at room temperature for 2 hours. Cells were then removed and diluted 1:100 in PBS (pH 7.4) to stop the reaction, pelleted by centrifugation, and resuspended in 30 microliters of refrigerated PBS containing 25 nM biotinylated VEGF. After incubation in the refrigerator on a rotary shaker for 45 minutes, cells were pelleted at 4° C. and resuspended in refrigerated PBS containing 50 nM Streptavidin-Phycoerythrin fluorescent conjugate. After incubation in the refrigerator on a rotary shaker for 45 minutes, cells were pelleted at 4° C. and resuspended in PBS and red fluorescence was measured for analysis or sorting on a FACSAria cell sorter. The fluorescence of cells treated with enzyme was compared to control samples to determine the increase in VEGF binding.

[2] = target: T1, VEGF; assay: FACS, construct displayed on E. coli (CPX), labeled VEGF; with MMP-2 against without (FIG. 23)
Description: as §1
(§2) In an additional experiment, the fluorescence values for a cysteine constrained loop structure were determined in the presence and absence of MMP-2 and compared with the fluorescence values for library clones 4.2A.11 (a.k.a. 4-2A-11) and 2.3B.5 (a.k.a. 2-3B-5) in the presence and absence of MMP-2.

[3] = target: T1, VEGF; assay: FACS, ABP displayed on E. coli (CPX), labeled VEGF; MMP-2 treated against untreated
Description: as §1

[4] = target: T1, VEGF; assay: Kd,app of VEGF binding to the construct displayed on E. coli, with MMP-2 against without (FIG. 13)
[5] = target: T1, VEGF; assay: FACS, construct displayed on E. coli (CPX), labeled VEGF; treated against untreated
[6] = target: T1, VEGF; assay: Kd,app of VEGF binding to the clone displayed on E. coli, with MMP-2 against without (FIG. 14)
[7] = target: T1, VEGF; assay: FACS, clone displayed on E. coli (CPX), labeled VEGF; with MMP-2 against without (FIG. 23)
Description: as §1, §2

[8] = target: T1, VEGF; assay: SPR (Biacore), VEGF amine-coupled to a CM5 chip, soluble MBP fusion injected with and without 30 nM MMP-2 (FIG. 27)
Description: VEGF was immobilized to the Biacore™ CM5 sensor chip surface using the standard amine coupling kit. An NHS/EDC mixture was injected first to activate the surface using the surface preparation wizard in the Biacore™ software. Then, 25 ug/mL concentration of VEGF was injected until the desired immobilization amount was reached (typically ˜5000 response units). The surface is then blocked with ethanolamine. A control reaction was performed on another surface with NHS/EDC then Ethanolamine.
After the VEGF is covalently immobilized, the maltose-binding protein (MBP) fusions of VEGF binding or VEGF binding ABP clones were injected over both the VEGF surface and the control surface. Injections were typically for 1 minute, with a few minutes of dissociation time after each injection. The clones were injected both with and without 30 nM MMP-2 enzyme. For analysis, the signal on the VEGF surface minus the signal on the control surface is the binding response (in RU).

[9] = target: T2, anti-VEGF scFv TBM; assay: FACS, peptide displayed on bacteria, anti-VEGF scFv; clones selected with labeled ranibizumab
T2 construct: The design included a His6 tag at the N-terminus and a TEV site; also called anti-VEGF single chain Fv
Description: Ranibizumab was used to screen a pooled random peptide library, consisting of peptides that are X₁₅ (8.3×10⁹), X₄CX₇CX₄ (3.6×10⁹), or X₁₂CX₃ (1.1×10⁹), where X is any amino acid and the number represents the total diversity of the library. The total diversity of the pooled library was 1.3×10¹⁰. The screening consisted of one round of MACS and […] of FACS sorting. […] In the first FACS screen, positive cells isolated in the MACS screen were probed with 500 nM biotinylated-ranibizumab, and visualized with neutrAvidin-PE (Molecular Probes, Eugene, Oreg.). The second and third rounds of FACS selections were done with 500 nM and then 100 nM Alexa-labeled ranibizumab in the presence of 20 uM IgG. Individual clones were sequenced and subsequently verified for their ability to bind anti-VEGF scfv by FACS analysis.

[10] = target: T3, UC4F10-11 hamster anti-mouse CTLA4 antibody; assay: bacterial display screening against anti-CTLA4 antibody; assay for this peptide not detailed
T3 construct: Whole antibody, biotinylated or Dylight-labeled in the sorts; also called mouse anti-CTLA4 antibody (clone UC4 F10-1); anti-CTLA4
T3 sequence (VH, as listed by the source limits assumed, chain 1 of 2): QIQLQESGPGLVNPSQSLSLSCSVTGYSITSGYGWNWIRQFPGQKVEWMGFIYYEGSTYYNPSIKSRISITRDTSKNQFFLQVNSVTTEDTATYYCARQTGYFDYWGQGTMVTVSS
T3 sequence (VL, as listed by the source limits assumed, chain 2 of 2): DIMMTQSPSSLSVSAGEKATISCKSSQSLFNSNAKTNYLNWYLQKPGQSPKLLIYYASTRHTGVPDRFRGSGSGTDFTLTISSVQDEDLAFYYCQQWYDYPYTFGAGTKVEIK

T1 sequence (P15692 other isoform, or with tags, fused parts or gaps limits assumed): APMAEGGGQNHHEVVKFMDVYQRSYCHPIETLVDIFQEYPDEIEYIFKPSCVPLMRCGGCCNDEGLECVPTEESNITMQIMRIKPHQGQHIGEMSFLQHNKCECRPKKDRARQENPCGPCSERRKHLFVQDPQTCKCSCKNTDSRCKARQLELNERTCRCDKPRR
T2 sequence (scFv, as listed by the source): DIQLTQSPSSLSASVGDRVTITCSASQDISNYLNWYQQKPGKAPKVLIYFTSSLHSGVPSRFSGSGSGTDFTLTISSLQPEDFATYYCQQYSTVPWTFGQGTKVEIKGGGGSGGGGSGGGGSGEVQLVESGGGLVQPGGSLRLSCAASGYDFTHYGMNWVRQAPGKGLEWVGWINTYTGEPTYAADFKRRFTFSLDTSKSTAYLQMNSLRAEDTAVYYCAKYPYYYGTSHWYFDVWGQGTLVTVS

B1: GS control (designed binder)
chain: GQSGQGGSGGSGGSGGSGGSPLGLAGGGSGNFGYGKWEWDYGKWLEKVGGG
modifications: also: fused C-terminal to CPX display scaffold, letters not given here
notes: Control lacking the cysteine-cysteine disulfide bond; also called GS control polypeptide; not shown: CPX display scaffold (circularly permuted E. coli OmpX), fused C-terminal of the construct
fold increase in fluorescence after enzyme cleavage [1]: < 2 fold

B2: cysteine constrained loop ABP (designed binder)
chain: GQSGQGCGSGPLGLAGGGSGNFGYGKWEWDYGKWLEKVGGC-{CPX}
modifications: disulfide 7-41 (inferred); also: fused C-terminal to CPX display scaffold, letters not given here
notes: Tested untreated, after MMP-2 treatment and after DTT reduction; also called cysteine constrained parent; cysteine constrained loop structure; not shown: CPX display scaffold (circularly permuted E. coli OmpX), fused C-terminal of the ABP
fold increase in fluorescence in the presence of MMP-2 [2]: ~3 fold
fold increase in fluorescence after MMP-2 treatment [3]: ~2.6 fold
fold improvement in Kd,app in the presence of MMP-2 [4]: ~3.4 fold
fold switching activity [5]: 2 fold

B3: ABP library clone 2-2A-5 (designed binder)
chain: GQSGQPEWGCGPLGLAGGGSGNFGYGKWEWDYGKWLEKVGGC-{CPX}
modifications: disulfide 10-42 (inferred); also: fused C-terminal to CPX display scaffold, letters not given here
notes: Tested untreated, after MMP-2 and after DTT; not shown: CPX display scaffold (circularly permuted E. coli OmpX), fused C-terminal of the ABP
fold improvement in Kd,app in the presence of MMP-2 [6]: ~4.8 fold

B4: ABP library clone 4-2A-11 (designed binder)
chain: GQSGQGEDEEGPLGLAGGGSGNFGYGKWEWDYGKWLEKVGGG
notes: not shown: CPX display scaffold (circularly permuted E. coli OmpX), fused C-terminal of the ABP
fold increase in fluorescence in the presence of MMP-2 [7]: ~5.7 fold

B5: maltose-binding protein (MBP) fusion of ABP clone 2.3B.5 (designed binder, not shown: large carriers; small tags and cut ends)
chain: CEYAFGPLGLAGGGSGNFGYGKWEWDYGKWLEKVGGC
modifications: also: fusion with maltose-binding protein (order not certain), disulfide Cys1–C-terminal Cys possible
notes: Soluble protein; the order MBP then ABP is my reading and is not certain; also called 2.3B.5 (2-3B-5) fusion; MBP-ABP fusion
fold increase in binding response in the presence of MMP-2 [8]: ~4 fold

B6: JS283 (peptide)
peptide: ATAVWNSMVKQSCYMQG
notes: also called 283 MM
binding result [9]: binds

B7: JS292 (peptide)
peptide: GHGMCYTILEDHCDRVR
notes: also called 292 MM
binding result [9]: binds

B8: JS306 (peptide)
peptide: PCSEWQSMVQPRCYYGG
binding result [9]: binds

B9: JS308 (peptide)
peptide: NVECCQNYNLWNCCGGR
notes: also called 308 MM
binding result [9]: binds

B10: JS311 (peptide)
peptide: VHAWEQLVIQELYHC
notes: also called 311 MM
binding result [9]: binds

B11: JS313 (peptide)
peptide: GVGLCYTILEQWCEMGR
notes: also called 313 MM
binding result [9]: binds

B12: JS314 (peptide)
peptide: RPPCCRDYSILECCKSD
binding result [9]: binds

B13: JS315 (peptide)
peptide: GAMACYNIFEYWCSAMK
notes: also called 315 MM
binding result [9]: binds

B14: Negative control MM (does not bind anti-CTLA4) (peptide)
peptide: PCSEWQSMVQPRCYY
notes: also called MMneg
binding result [10]: no binding
